Results: the supplement of paper PMC12042874
± gives the uncertainty stated by the source.

assay: amyloid nucleation score (Sup35N fusion, yeast selection) (log enrichment); library NNK2; higher = more nucleation; inactive = no reads after selection
Procedure, shortened: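 DiMSum was used to calculate nucleation scores as log enrichment of output over input reads, centred on the mode score of non-aggregating sequences. Sequences with fewer than 100 input reads were not scored. Input and output came from Illumina sequencing of plasmid inserts in psi-negative yeast expressing peptides of 20 random codons fused to Sup35N, induced 24 hours with 100 μM copper sulfate and then grown 7 days at 30°C on medium lacking adenine and uracil.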

| Substance | amyloid nucleation score |
| --- | --- |
| VGWHPPVLTEYTMDQTAYTT | 1.39 ± 0.29 |
| VHLGRV | -0.678 ± 0.48 |
| VHLPCGYLKFRGLMYWRREL | 0.479 ± 0.34 |
| VHLSKDLCYLLSGYGYFPCF | -0.216 ± 0.36 |
| VHQFADFNKIMNGLDDLLLK | 2.65 ± 0.081 |
| VIAFYVAFFNRTRVSYRSLW | 4.22 ± 0.06 |
| VICGLTPDRDAHMYLTIFWL | 0.578 ± 0.81 |
| VIEYRVFRKYPCNCFLRGLS | -0.865 ± 0.39 |
| VIFLVDNCCMACDSLEPRTI | 0.513 ± 0.25 |
| VIGASRRVWHRLKHKA | 0.994 ± 0.34 |
| VIHMVPMTEGGLPCTV | -0.139 ± 0.56 |
| VIHSPQMLSWSSHGNARFSK | 0.628 ± 0.33 |
| VIKCLVPSLIKSFRRHWFNT | -0.708 ± 0.79 |
| VIKMVMEVPVTGFPRSRNSF | -0.369 ± 1.1 |
| VILGVGKTTNFYSSFFIRVW | inactive |
| VIMVTSPQFKKPKLYMDKRD | -1.03 ± 0.54 |
| VINSMY | 1.11 ± 0.45 |
| VINTEVCIEGGRQVRPAPRL | 1 ± 0.41 |
| VISKVSLDVCRCIRFLHYDS | 7.692 ± 0.061 |
| VISQRLFS | -0.155 ± 0.74 |
| VIVVRNQRKFVTSDLPLKVC | 1.04 ± 0.35 |
| VIYLHVYGCVNLVSVLVHSL | 1.87 ± 0.12 |

| Substance | amyloid nucleation score |
| --- | --- |
| VKALNH | 0.66 ± 0.33 |
| VKAVMWIDLVNRVIMNGHIS | -0.461 ± 0.49 |
| VKCLGAFGDE | -0.012 ± 1.1 |
| VKINSTDMSMVQNCNYLIWV | -0.531 ± 1.1 |
| VKNCDWGIYIILSGFMRVTR | -1.27 ± 1.1 |
| VKPVFWKLGWRDYLYSMRQF | -1.11 ± 0.3 |
| VKRYGINGGFNYSSYCTAGI | inactive |
| VKYRDIMSRGSVVRQNDKVS | inactive |
| VLAGLMVNSGVL | -0.34 ± 0.3 |
| VLCSCCLVVNIVNVLSVHSY | 8.363 ± 0.06 |
| VLDFLVSCADYSWSLNNCES | -0.91 ± 0.76 |
| VLDTMYGTDIQRRTMGKANT | 0.391 ± 0.36 |
| VLELLGPIMSRKIFLKVGFC | inactive |
| VLHKNTKMANTWVHNPTEVE | -0.328 ± 0.27 |
| VLINEHYGYRFFCFNCADGK | 8.228 ± 0.036 |
| VLIRSSDNWWAEGSGVLGSC | 0.201 ± 1 |
| VLKKA | 0.185 ± 0.8 |
| VLKVRHVFEGGTEVILQSNR | 2.22 ± 0.2 |
| VLLQNYAMVAFT | -1.07 ± 0.45 |
| VLNISMLLWIYNTYGNDGKV | 8.029 ± 0.08 |
| VLRNKVVCSYQLYLRWFGKD | 1.64 ± 0.37 |
| VLSSHRFNEAKMN | -0.366 ± 0.41 |

| Substance | amyloid nucleation score |
| --- | --- |
| VLTFRRMHD | 0.398 ± 0.65 |
| VLWCGDLFAYLYMYVFSSNS | 7.516 ± 0.051 |
| VLWVS | inactive |
| VLYGVCIVCCSWSMTSC | 0.959 ± 0.6 |
| VMCFNTMKC | 7.386 ± 0.044 |
| VMFSVDHRLTQ | -0.354 ± 0.35 |
| VMFVTSV | 0.201 ± 0.29 |
| VMGCFSIGGLGMGVPMVYSR | 0.651 ± 0.44 |
| VMGYGKRLMSHLGMKSRTRL | 0.468 ± 0.29 |
| VMHFDLQICDRVHSRKSAPR | 8.523 ± 0.038 |
| VMHSYDYVTMGFRSRTDPFR | 3.05 ± 0.14 |
| VMIWVTA | 0.637 ± 0.25 |
| VMNHWCNVWSFPWTMVRTHQ | 0.352 ± 0.31 |
| VMNVNSCGWVVRHNR | 4.97 ± 0.1 |
| VMPIFNYWV | 0.121 ± 0.3 |
| VMYKAFFRYFGR | 1.71 ± 0.24 |
| VNECSFYIIPQTAQWCLVV | 0.086 ± 0.5 |
| VNFRVGCLVSYMNVK | 2.6 ± 0.13 |
| VNIWAVNICC | 7.8 ± 0.048 |
| VNNATKIGWSSMAIRDNKTI | -0.142 ± 0.49 |
| VNQLYWILCAYMVLCVGRDA | 4.54 ± 0.093 |
| VNRIASKWVYLLMNEFYSI | -1.21 ± 0.61 |

| Substance | amyloid nucleation score |
| --- | --- |
| VNWRLKHWLGEDDPLPVTSF | -0.267 ± 0.63 |
| VPDGHWSTHRRFSYMQVLNW | -0.441 ± 1.1 |
| VPIKGHNRHMMNYNSEKAGS | -1.13 ± 0.76 |
| VPNFRS | 4.16 ± 0.037 |
| VPSQASGTRACKHNWTVWLE | 1.33 ± 0.25 |
| VPVFFGPFQYT | -0.419 ± 0.63 |
| VQFPSVMFICRIARRRTY | 0.746 ± 0.67 |
| VQFRAHSCLLA | 0.841 ± 0.74 |
| VQGPHSFNGVGCRPFSNERR | -0.202 ± 1.1 |
| VQLGVHV | 0.14 ± 0.4 |
| VQMYCRSSAQPRVAILAMSG | 1.16 ± 0.12 |
| VRCEESWGDIICD | inactive |
| VRCGGVSFGSMWVLDSILVR | 0.652 ± 0.15 |
| VRDFCRWASDVRCSNGWRVA | 0.384 ± 0.65 |
| VRDLTCSNNITILFMHW | 6.13 ± 0.079 |
| VREGSNRVSRFHNGWHQSGL | -0.555 ± 0.79 |
| VREYQSWPKGCCT | 4.78 ± 0.065 |
| VRFVMNRSHHRSRWEAVAFN | 0.255 ± 0.48 |
| VRGPIGHLCICSAMSLGWIH | 2.67 ± 0.11 |
| VRHGMSIFSCYPVTPTRLER | 0.266 ± 0.38 |
